# Measurements from patent US20070160576A1, “IL-17A/F heterologous polypeptides and therapeutic uses thereof” (Genentech, Inc., priority 2001, published 2007).
# “Also recorded” adds a separate entry of the source. Read-outs that look alike come from different tables or passages of the source.
# T1: PRO20040 (human IL-17RH2 receptor) (Homo sapiens, UniProt Q8NAC3)
# T1 sequence (Q8NAC3 21-791): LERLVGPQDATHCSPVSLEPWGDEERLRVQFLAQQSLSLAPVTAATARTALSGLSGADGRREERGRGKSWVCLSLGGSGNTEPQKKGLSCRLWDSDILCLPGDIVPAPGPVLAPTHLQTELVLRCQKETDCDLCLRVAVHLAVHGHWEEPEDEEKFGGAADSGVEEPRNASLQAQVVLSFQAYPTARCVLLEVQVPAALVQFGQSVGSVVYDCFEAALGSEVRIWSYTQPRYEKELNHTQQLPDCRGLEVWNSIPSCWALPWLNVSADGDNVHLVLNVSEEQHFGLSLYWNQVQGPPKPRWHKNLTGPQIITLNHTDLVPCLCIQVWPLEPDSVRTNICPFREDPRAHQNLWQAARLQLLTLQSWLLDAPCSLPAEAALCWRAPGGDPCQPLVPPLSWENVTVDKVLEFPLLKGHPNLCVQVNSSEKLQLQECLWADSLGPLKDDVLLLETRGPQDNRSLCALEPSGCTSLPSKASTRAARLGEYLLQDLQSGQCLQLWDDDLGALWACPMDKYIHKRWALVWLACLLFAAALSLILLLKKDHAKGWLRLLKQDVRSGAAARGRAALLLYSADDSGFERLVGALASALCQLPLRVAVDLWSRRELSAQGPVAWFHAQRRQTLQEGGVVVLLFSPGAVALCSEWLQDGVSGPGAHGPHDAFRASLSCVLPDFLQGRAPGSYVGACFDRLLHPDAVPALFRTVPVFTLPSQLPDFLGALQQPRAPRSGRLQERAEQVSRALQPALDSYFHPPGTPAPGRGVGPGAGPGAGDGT
# T2: PRO5801 (human IL-17RH1 receptor) (Homo sapiens, UniProt Q9NRM6)
# T2 sequence (Q9NRM6 18-502): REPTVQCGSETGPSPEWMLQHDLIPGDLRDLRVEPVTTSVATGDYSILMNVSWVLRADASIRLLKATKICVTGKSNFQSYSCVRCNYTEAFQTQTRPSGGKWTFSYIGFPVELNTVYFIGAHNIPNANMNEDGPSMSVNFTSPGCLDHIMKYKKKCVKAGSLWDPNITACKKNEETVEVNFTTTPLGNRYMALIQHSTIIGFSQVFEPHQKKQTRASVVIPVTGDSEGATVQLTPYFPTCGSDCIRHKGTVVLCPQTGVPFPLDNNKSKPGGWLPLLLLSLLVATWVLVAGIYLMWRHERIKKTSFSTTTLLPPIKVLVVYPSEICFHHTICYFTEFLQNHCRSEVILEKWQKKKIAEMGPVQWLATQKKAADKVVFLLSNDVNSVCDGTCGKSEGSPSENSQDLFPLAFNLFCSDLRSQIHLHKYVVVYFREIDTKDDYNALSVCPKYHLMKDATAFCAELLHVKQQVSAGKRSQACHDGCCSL
# Key:
# Test in all cases: Receptor/ligand interaction screening assay (immunoadhesin)
# Type in all cases: binding
# [1] = molecular target: T1, PRO20040 (human IL-17RH2 receptor)
# Description: (§1) In general, the assay is performed as follows. A PRO polypeptide of the present invention suspected of being a ligand for a receptor is expressed as a fusion protein containing the Fc domain of human IgG (an immunoadhesin). Receptor-ligand binding is detected by allowing interaction of the immunoadhesin polypeptide with cells (e.g. Cos cells) expressing candidate PRO polypeptide receptors and visualization of bound immunoadhesin with fluorescent reagents directed toward the Fc fusion domain and examination by microscope. Cells expressing candidate receptors are produced by transient transfection, in parallel, of defined subsets of a library of cDNA expression vectors encoding PRO polypeptides that may function as receptor molecules. Cells are then incubated for 1 hour in the presence of the PRO polypeptide immunoadhesin being tested for possible receptor binding. The cells are then washed and fixed with paraformaldehyde. The cells are then incubated with fluorescent conjugated antibody directed against the Fc portion of the PRO polypeptide immunoadhesin (e.g. FITC conjugated goat anti-human-Fc antibody). The cells are then washed again and examined by microscope. A positive interaction is judged by the presence of fluorescent labeling of cells transfected with cDNA encoding a particular PRO polypeptide receptor or pool of receptors and an absence of similar fluorescent labeling of similarly prepared cells that have been transfected with other cDNA or pools of cDNA. If a defined pool of cDNA expression vectors is judged to be positive for interaction with a PRO polypeptide immunoadhesin, the individual cDNA species that comprise the pool are tested individually (the pool is “broken down”) to determine the specific cDNA that encodes a receptor able to interact with the PRO polypeptide immunoadhesin.
# (§2) In another embodiment of this assay, an epitope-tagged potential ligand PRO polypeptide (e.g., 8 histidine “His” tag) is allowed to interact with a panel of potential receptor PRO polypeptide molecules that have been expressed as fusions with the Fc domain of human IgG (immunoadhesins). Following a 1 hour co-incubation with the epitope tagged PRO polypeptide, the candidate receptors are each immunoprecipitated with protein A beads and the beads are washed. Potential ligand interaction is determined by Western blot analysis of the immunoprecipitated complexes with antibody directed towards the epitope tag. An interaction is judged to occur if a band of the anticipated molecular weight of the epitope tagged protein is observed in the Western blot analysis with a candidate receptor, but is not observed to occur with the other members of the panel of potential receptors.
# [2] = molecular target: T2, PRO5801 (human IL-17RH1 receptor)
# Description: as §1, §2
# [3] = molecular target: human IL-17 receptor (IL-17R, PRO1) (Homo sapiens, UniProt Q96F46)
# Description: as §1, §2
Molecule,binding to IL-17RH2 receptor (PRO20040) [1],binding to IL-17RH1 receptor (PRO5801) [2],"binding to human IL-17 receptor (IL-17R, PRO1) [3]","binding to human IL-17 receptor (IL-17R, PRO1) ([3]; listed as PRO1122)",binding to IL-17RH2 receptor (PRO20040) ([1]; listed as PRO20110)
"PRO1122 (IL-17C ligand) (ligand, UniProt Q9P0M4 19-197, looked up) HHDPSLRGHPHSHGTPHCYSAEELPLGQAPPHLLARGAKWGQALPVALVSSLEAASHRGRHERPSATTQCPVLRPEEVLEADTHQRSISPWRYRVDTDEDRYPQKLAFAECLCRGCIDARTGRETAALNSVRLLQSLLVLRRRPCSRDGSGLPTPGAFAFHTEFIHVPVGCTCVLPRSV",do not interact,do not interact,do not interact,do not bind,–
"IL-17F: human IL-17F ligand, SEQ ID NO:4 (protein, listed as Homo sapiens) MTVKTLHGPAMVKYLLLSILGLAFLSEAAARKIPKVGHTFFQKPESCPPVPGGSMKLDIGIINENQRVSMSRNIESRSTSPWNYTVTWDPNRYPSEVVQAQCRNLGCINAQGKEDISMNSVPIQQETLVVRRKHQGCSVSFQLEKVLVTVGCTCVTPVIHHVQ",has been shown to bind; also recorded: binds to,–,binds to,–,binds to
"PRO21175 (IL-17D ligand) (ligand, UniProt Q8TAD2 16-202, looked up) AGAPRAGRRPARPRGCADRPEELLEQLYGRLAAGVLSAFHHTLQLGPREQARNASCPAGGRPADRRFRPPTNLRSVSPWAYRISYDPARYPRYLPEAYCLCRGCLTGLFGEEDVRFRSAPVYMPTVVLRRTPACAGGRSVYTEAYVTIPVGCTCVPEPEKDADSINSSIDKQGAKLLLGPNDAPAGP",do not interact,do not interact,do not interact,–,–
